In article PMC2886031:
Like-named read-outs stand apart in the source and are kept apart here.

How the values were obtained:
[1] = target: T1, PacI (R.PacI) restriction endonuclease (Pseudomonas alcaligenes, UniProt D5MNX7 1-142); assay: X-ray crystallography
T1 sequence: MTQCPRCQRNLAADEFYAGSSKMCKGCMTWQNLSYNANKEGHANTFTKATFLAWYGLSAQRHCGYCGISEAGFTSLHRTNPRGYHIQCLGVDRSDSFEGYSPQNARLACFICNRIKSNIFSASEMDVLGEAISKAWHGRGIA

[2] = target: T1, PacI (R.PacI) restriction endonuclease; assay: X-ray crystallography; remark: listed apart in the source

B1: 18 bp PacI cognate duplex (uncleaved) (dsDNA)
DNA 1: GAGGCTTAATTAAGCCGC
DNA 2: GCGGCTTAATTAAGCCTC
binding result [1]: binds

B2: 18 bp PacI cognate duplex, cleaved product (dsDNA)
DNA 1: GAGGCTTAAT
DNA 2: TAAGCCGC
DNA 3: GCGGCTTAAT
DNA 4: TAAGCCTC
modifications: 5' phosphate at the cleaved ends
binding result [2]: binds
